Measured values: the NTF2 design screens of Basanta et al. (2020)

Assay: protease stability score; higher = more stable; yeast display proteolysis, trypsin and chymotrypsin;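 also: log10 excess protease needed over predicted unfolded state with 0 meaning unfolded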

Sequence | protease stability score
DEEMNKRAKRLVDVLRTGDFREFLEMVDPNARVQIGDKSWHGMEDYVHDLKEKRDQIKMHYEVKHMTAHDGRAHLEIDAEANVNGQPLSFSFTLHLQFQNGRVTHAEYQLDEDRLRKLEQ | 0.911
DEENADVIRRFLDAIHTGNPDDARKNADPNAQYKIGDKTYSGMERWVKTLQDQKRHQEIDIKIKHISVKGDKITVEFVVVVNINGRPVSFSAILSAEVKNGKIKHLQYHISEEQKRKVEG | 0.222
DEENAERLKKIFRAVQENDSKQIERNFDPNAEVTYGDKTVTGREEQSREYHKILHEIRVRIQIKHVKVHNGRLSIHAKMDREHNGEPDDATLIVEAHFHNGKATEQQNDVHK | 0.44
DEENAHEAVRIWETGDPQENADLVDPNVHARYGDKKIRGREDMEEFWRRMHHQIDHKDVRDIQVSGNHIEIDMEINVDGVRARYVARYHMDNGKIKSANAEFRDPDEKQDIRRALD | 0.275
DEENAKIIENLIRANETNDPDRAVQLADENVDFRIGDRTYRGMDEYATQMAHEFKEIEMRIHLKTFDTQGEKVRLEADVKRTHNGKPESFRAVMVANASNGRVVEIDVQMDK | 0.974
DEENAKTLKQQMNQYQSGDEEEVQENVDKDAKFVIGDKRIHGREKYREQVRRELEDIRIDVKIKHLNDKGEKVQVHARLERNHNGRPTDATVDVVVRWHNGRAKEAQFHTDG | -0.11
DEENEDIFRKYLEDLKKGDPKKLKEQFDKDAEVKVGDDVLHGRRSIARTLHEERKEMRVEIEDVKVRAHNGQLEVRFQQTVDHNGRPKTVRARMEVKFHNGRIKHLSVDERE | -0.331
DEENEDLLRKFVEALERNDEDKIMEQADPNAELRYGDKHIHGREKMRELVQNREKELRLDVKDFEVDVNNGHARITVENVQETNGRPTTTRYRIDASIHNGRLQKVNITSDK | 0.287
DEENEKFARRYLEALKHNNPHEMQNMIDPNATLNVGDTRIDGDDQAKKFWSKKLQEISISIRKVSVEVSGNRIDIDAEYELEHNGKPDVNRRTVHLNVKNGKITDLKVRHDK | -0.063
DEENEQLFNEFLKAMEHGDPNRLNQLMDPDVHIRVGDKQIHGREEAAREIVRQMKEQNRHIDSIEVSAENGELTVNVEMFQTHDGKPKKYTYRAKIVFENGKIKHIDRKHSQ | 0.884
DEENHRRATELLRAWKTGDEEELKRQMPPDVHIRVGDQEVHGREQAVKHLAQRRREASFRFKIKEYELQGEKIRIVARAEVHHNGEPQRYVVRLVILYRNGQAEEINQQEDG | 1.25
DEENHTLAKMWFHAYNKGDEDQVRRMADPNVKIQIGDKVIHGRNDEVRWLKERRDHQRSDIKLDHVSASNGRVQIHFTFTVQHNGKPNTSKQQLSMVFQGDKLKSLHMRTDG | -0.112
DEENIEQLRRMMTNLNTGDFHKMVNLMDPNARVRYGDRQISGREEVRKEWEKIVKSMHIERQVRSIEDHDGRAYADVELRVNVDGRPFSVRFTVVVEVRNGRVKFLEVRVPEEFMEKLDS | 1.07
DEENIRVYQEMLEAIKEGDQKRVQELVDPNVEAVYGESQVHGREDIARDLRRVREESRRDVTTYKVTDTNGQITINVDFFQTHDGRPTRKEASVHVQITNGKVKFVEMRDDQ | 0.248
DEENKHAAERLMRAIQKGDPDDMVRNMDKDAKVNIGDQQFHGREEVAKQNRKDNKEMRYHQEVKSISVDGDKVTVEATAQFTYNGQPDTFKFSFRAHLHNGRIRHLDVHFDEQTKRDQES | 0.101
DEENKKQAERLYTALEKNNPEELKKLADPNARVEVGDTTYHGMRKFLRDLAQTLKELRVEVIEIEIDVQGNQVTAHVHVRVEKNGQPDEFVLIFHFELSNGRIKRVRVERHQ | 1.12
DEENKKRFDKFQEVQKQGDPKQLQSLMDPNVEWRVGDKNYHGRQEIAKDRIRVQREIRIEFNITHYENHNGRVKIHAEAKAKVNGRPQTYDYSFEVVVHNGKIKELNWRVDPEEVDRIES | 0.67
DEENLDAARRLIDALKNNDPDHAMENADKDVRVHIGDWHVHGREDMSRLIKELVDEMRVDVKDVKTRKDGETAVITIDAVFHVNGEPKRDTFTMNVKAHNGHVQRIHARVSEEDVRKLKQ | -0.086

Sequence | protease stability score
DEENLEIAKDLIRAQETGDEERIQNLLDPNVKIDVGDKSIHGREHLRKTQQEQKRNMRFDVDSVENKVHNGQVRVDAHVRERHNGQPTTKRYTLHMHFHNGKVERIRLQDKG | 0.318
DEENLHRRAEQFVKALEHGDQHQFRRMFDENARVEVGDKFFHGREEVARFMRDLTRRIDHVQFRRMEVRGEKIIVKAEAHVNGKRVTIIFDLTVKNGRIKHVRITFTDEKDRREFER | 1.12
DEENLKKVREFLEHLVTGNEREVKHLMDPNAEMEVGDKKYSGTEQLRRLMQELKRHQTNKYDIKDMKVQGNKADLKAKVIERHNGQPDDTEQQFFATMSNGRFKKVSFRTDK | -0.295
DEENLNQLKKFWHALQTNNPDQARKLADPNVRLHVGDKSVNGREEMVKRLVDKMHEMEIDYKVRDMHAHNGHIKVEAERVIHDNGQPRRATYEIRVIIKNGRIKEIQIHERQ | 1.07
DEENLNRLDEFQQAVQTGDEKEAEELVDPNARVNVGDKQVNGMDKLRRTIHNKRRKMRVEIDHVNFRAKGNHVTARFDFHVNHNGTPRRTQMNVEARFKNGRIKSLRNESVS | 0.121
DEENLQKIAHKVVRALHDGDPHQMHDLFDKDARISYGDKSVHGRNEISKAAHEREERVDDIDFKSFSVKNGHVEVDAKYDHNGQRREVIVQVEMHNGRIKSARFTKK | 0.2
DEENLRTLAQEVKDILQTGDEEKLKEMLDKDVRLEVGDHVYEGSENAAKAANHWKERADHIQVDSIEIHGNELRIDVRVNVNGKNIDIDIVVTFSNGRIREMKFQYRDEDEKRQLER | 0.809
DEENLRVVVHLMKAVETGDPTKARRNLDKDVHFNVGNRRIHGREQFQKELDDEKKDISINVKDYRVRDKNGKAHFTVRFVLEVNGRPMEMKITMQAEAHNGRIKHVQQQVSEEDEKRINK | -0.094
DEENMEVLEKVLDAMRTGDKKKVRDNLDKDARIEIGDHVLNGREEFAKWVVQIKKEIKVQINIQSVDVSNGRVRVHAQVEFRVNGQPQQYTIHIVAEIHNGHIKTLRMSFDDDQQRKFES | 0.924
DEENMEVYQTQLKVEQRGNEEELVKLIDPNAEVRIGDKQVKGRENIAHTIKQETDKMERKIESLNLSAHNGEIHIKATVVQTHNGEPRTDSYVMRIHLHNGRLKQMDVHKSN | 0.541
DEENMHKLQEIIRTNDETKFNEMMDPNVEIEVGNKTYHGREEAIKFQRRVNQHVDKIQVDYVEVQGDSLRADYVVQVNGQNVRVDLEIRVEDGRAKEIRLNFRNEEEHKMYEKWLS | 1.34
DEENQKIFDEYVKALRTNNPERLNEMLDPNARVQVGDKEVHGMDDLSRTVNQMIDNLHLNLKIESVHVRGNTLSVDAEYVLNVNGKPQRRSVEIEIHAHNGTVKFLRMRVDPREEQKIKS | 0.363
DEENQKQIKKIWHAWEKGDEQKAQDMVDPNVNIQVGDKHISGQDSLREDLRRKRHEMRVRVRFHDINIDENHISVKIEVLNEKNGRPSTKVVVFEATVHNGKIKSMEFRDDD | 0.494
DEENQQDYARKMNEMIVQNDPDEALRLFDPNVKVDIGDTRIDGRHDLERWVEDLKKQVDHVQLHDVKFRGDHASIHIEMTVNGRTISQIYHIVFHNGKAKEMKVETK | 0.567
DEENQRLAEEFIRAFEKGNPDQAATMADPNVKIDIGEKRIHGHEELKKWIEELQRQMRVEVEHYEVEADGDKVIARLIFRQEHNGKPQEDKEQVNIRFHNGRAKSVTIRSTK | 0.028
DEENREVAERWLDALKRGDPKKANEQMDPNARLRVGNKTVHGREDFEQMIRKWQEHMSFSVETMTVQVEGNKIIIKATREVVVNGRPHKDTFEFEIEIQNGKIKEITIHFPEQELKEIED | 0.815
DEENREVMERFVQAFNRNNPDQLNTNADPNAKFVIGDKTINGRERMKKWQEEQNTHMRQHLEVTSISVHGNSITARVRMQFQVNGQPQEVDLTLHATIHNGQIKQLTFNLDKDEKKQIDK | -0.133
DEENRHAAEQYLTALRTGDEEQLKKNADPNVRVQVGDKQWTGMERYAHDQVRQLKEIHIEIKVDDIKVSNGEVDMKAERNSNHNGKPSRNRASLTIVVHNGKIQEIHWQEDS | -0.47
